Target: the molecule itself
Assay: SEC

B1: full length unphosphorylated wild-type MEK6 (natural protein, human, UniProt P52564 1-334, looked up)
chain: MSQSKGKKRNPGLKIPKEAFEQPQTSSTPPRDLDSKACISIGNQNFEVKADDLEPIMELGRGAYGVVEKMRHVPSGQIMAVKRIRATVNSQEQKRLLMDLDISMRTVDCPFTVTFYGALFREGDVWICMELMDTSLDKFYKQVIDKGQTIPEDILGKIAVSIVKALEHLHSKLSVIHRDVKPSNVLINALGQVKMCDFGISGYLVDSVAKTIDAGCKPYMAPERINPELNQKGYSVKSDIWSLGITMIELAILRFPYDSWGTPFQQLKQVVEEPSPQLPADKFSAEFVDFTSQCLKKNSKERPTYPELMQHPFFTLHESKGTDVASFVKLILGD
For B1, the “stoichiometry N” value was 2.
